Measurements reported in patent US11504441B2, “Radiolabeled compounds targeting the prostate-specific membrane antigen” (PROVINCIAL HEALTH SERVICES AUTHORITY, priority 2019, dated 2022).
One block for each molecule: values may come before it.

Assays:
[1] = in vivo; conditions: male, NODSCID 1L2RγKO, mouse, iv, total radioactivity; for excreta dose per gram or mL at 1 h: Urine uptake
[2] = system: PSMA-expressing LNCaP cancer xenografts

SMILES: O=C(O)CN1CCN(CC(=O)O)CCN(CC(=O)NC[C@H]2CC[C@H](C(=O)N[C@@H](Cc3c4ccccc4cc4ccccc34)C(=O)NCCCC[C@H](NC(=O)N[C@@H](C[C@@H](F)C(=O)O)C(=O)O)C(=O)O)CC2)CCN(CC(=O)O)CC1 [68Ga-HTK04033, metal not drawn]
- tissue uptake at 1 h ([1]; Adrenal glands uptake): 0.16 ± 0.03 %ID/g
- tissue uptake at 1 h ([1]; Blood uptake): 0.59 ± 0.12 %ID/g
- tissue uptake at 1 h ([1]; Bone uptake): 0.08 ± 0.01 %ID/g
- tissue uptake at 1 h ([1]; Brain uptake): 0.02 %ID/g
- tissue uptake at 1 h ([1]; Fat uptake): 0.1 ± 0.03 %ID/g
- tissue uptake at 1 h ([1]; Heart uptake): 0.18 ± 0.06 %ID/g
- tissue uptake at 1 h ([1]; Intestine uptake): 0.2 ± 0.04 %ID/g
- tissue uptake at 1 h ([1]; Kidneys uptake): 3.31 ± 0.34 %ID/g
- tissue uptake at 1 h ([1]; Lacrimal uptake): 0.04 ± 0.03 %ID/g
- tissue uptake at 1 h ([1]; Liver uptake): 0.29 ± 0.09 %ID/g
- tissue uptake at 1 h ([1]; Lungs uptake): 0.5 ± 0.05 %ID/g
- tissue uptake at 1 h ([1]; Muscle uptake): 0.09 ± 0.04 %ID/g
- tissue uptake at 1 h ([1]; Pancreas uptake): 0.15 ± 0.08 %ID/g
- tissue uptake at 1 h ([1]; Salivary uptake): 0.13 ± 0.02 %ID/g
- tissue uptake at 1 h ([1]; Seminal uptake): 0.1 ± 0.04 %ID/g
- tissue uptake at 1 h ([1]; Spleen uptake): 0.19 ± 0.03 %ID/g
- tissue uptake at 1 h ([1]; Stomach uptake): 0.07 ± 0.03 %ID/g
- tissue uptake at 1 h ([1]; Tail uptake): 0.66 ± 0.5 %ID/g
- tissue uptake at 1 h ([1]; Testes uptake): 0.17 ± 0.05 %ID/g
- tissue uptake at 1 h ([1]; Thyroid uptake): 0.18 ± 0.03 %ID/g
- tissue uptake at 1 h ([1]; Tumor uptake): 18.5 ± 4.05 %ID/g
- excreta dose per gram or mL at 1 h [1]: 440 ± 211 %ID/g
- Blood: Salivary ratio ([2]; mouse, in vivo): 4.38 ± 0.57
- Tumor: Blood ratio ([2]; mouse, in vivo): 31.7 ± 5.00
- Tumor: Kidney ratio ([2]; mouse, in vivo): 5.64 ± 1.37
- Tumor: Muscle ratio ([2]; mouse, in vivo): 221 ± 53.4
- Tumor: Salivary ratio ([2]; mouse, in vivo): 138 ± 21.1

SMILES: O=C(O)CCC[C@H](NC(=O)N[C@@H](CCCCNC(=O)[C@H](Cc1ccc2ccccc2c1)NC(=O)[C@H]1CC[C@H](CNC(=O)CN2CCN(CC(=O)O)CCN(CC(=O)O)CCN(CC(=O)O)CC2)CC1)C(=O)O)C(=O)O [68Ga-HTK03169, metal not drawn]
- tissue uptake at 1 h ([1]; Adrenal glands uptake): 0.24 ± 0.08 %ID/g
- tissue uptake at 1 h ([1]; Blood uptake): 0.63 ± 0.36 %ID/g
- tissue uptake at 1 h ([1]; Bone uptake): 0.08 ± 0.03 %ID/g
- tissue uptake at 1 h ([1]; Brain uptake): 0.02 ± 0.01 %ID/g
- tissue uptake at 1 h ([1]; Fat uptake): 0.09 ± 0.04 %ID/g
- tissue uptake at 1 h ([1]; Heart uptake): 0.14 ± 0.07 %ID/g
- tissue uptake at 1 h ([1]; Intestine uptake): 0.23 ± 0.16 %ID/g
- tissue uptake at 1 h ([1]; Kidneys uptake): 2.18 ± 0.48 %ID/g
- tissue uptake at 1 h ([1]; Lacrimal uptake): 0.13 ± 0.06 %ID/g
- tissue uptake at 1 h ([1]; Liver uptake): 0.21 ± 0.16 %ID/g
- tissue uptake at 1 h ([1]; Lungs uptake): 0.38 ± 0.17 %ID/g
- tissue uptake at 1 h ([1]; Muscle uptake): 0.08 ± 0.05 %ID/g
- tissue uptake at 1 h ([1]; Pancreas uptake): 0.11 ± 0.05 %ID/g
- tissue uptake at 1 h ([1]; Salivary uptake): 0.14 ± 0.03 %ID/g
- tissue uptake at 1 h ([1]; Seminal uptake): 3.83 ± 2.93 %ID/g
- tissue uptake at 1 h ([1]; Spleen uptake): 0.13 ± 0.06 %ID/g
- tissue uptake at 1 h ([1]; Stomach uptake): 0.09 ± 0.11 %ID/g
- tissue uptake at 1 h ([1]; Tail uptake): 0.48 ± 0.2 %ID/g
- tissue uptake at 1 h ([1]; Testes uptake): 0.13 ± 0.07 %ID/g
- tissue uptake at 1 h ([1]; Thyroid uptake): 0.16 ± 0.07 %ID/g
- tissue uptake at 1 h ([1]; Tumor uptake): 3.19 ± 0.7 %ID/g
- excreta dose per gram or mL at 1 h [1]: 421 ± 187 %ID/g
- Blood: Salivary ratio ([2]; mouse, in vivo): 4.39 ± 2.06
- Tumor: Blood ratio ([2]; mouse, in vivo): 6.09 ± 2.24
- Tumor: Kidney ratio ([2]; mouse, in vivo): 1.47 ± 0.16
- Tumor: Muscle ratio ([2]; mouse, in vivo): 47.1 ± 12.3
- Tumor: Salivary ratio ([2]; mouse, in vivo): 23.2 ± 1.91

SMILES: O=C(O)COC[C@H](NC(=O)N[C@@H](CCCCNC(=O)[C@H](Cc1c2ccccc2cc2ccccc12)NC(=O)[C@H]1CC[C@H](CNC(=O)CN2CCN(CC(=O)O)CCN(CC(=O)O)CCN(CC(=O)O)CC2)CC1)C(=O)O)C(=O)O [68Ga-HTK03187, metal not drawn]
- tissue uptake at 1 h ([1]; Adrenal glands uptake): 0.26 ± 0.06 %ID/g
- tissue uptake at 1 h ([1]; Blood uptake): 0.67 ± 0.1 %ID/g
- tissue uptake at 1 h ([1]; Bone uptake): 0.13 ± 0.03 %ID/g
- tissue uptake at 1 h ([1]; Brain uptake): 0.02 %ID/g
- tissue uptake at 1 h ([1]; Fat uptake): 0.07 ± 0.02 %ID/g
- tissue uptake at 1 h ([1]; Heart uptake): 0.19 ± 0.04 %ID/g
- tissue uptake at 1 h ([1]; Intestine uptake): 0.23 ± 0.05 %ID/g
- tissue uptake at 1 h ([1]; Kidneys uptake): 2.83 ± 0.45 %ID/g
- tissue uptake at 1 h ([1]; Lacrimal uptake): 0.09 ± 0.03 %ID/g
- tissue uptake at 1 h ([1]; Liver uptake): 0.21 ± 0.05 %ID/g
- tissue uptake at 1 h ([1]; Lungs uptake): 0.52 ± 0.09 %ID/g
- tissue uptake at 1 h ([1]; Muscle uptake): 0.09 ± 0.01 %ID/g
- tissue uptake at 1 h ([1]; Pancreas uptake): 0.12 ± 0.02 %ID/g
- tissue uptake at 1 h ([1]; Salivary uptake): 0.16 ± 0.02 %ID/g
- tissue uptake at 1 h ([1]; Seminal uptake): 0.65 ± 0.8 %ID/g
- tissue uptake at 1 h ([1]; Spleen uptake): 0.17 ± 0.02 %ID/g
- tissue uptake at 1 h ([1]; Stomach uptake): 0.08 ± 0.05 %ID/g
- tissue uptake at 1 h ([1]; Tail uptake): 0.46 ± 0.1 %ID/g
- tissue uptake at 1 h ([1]; Testes uptake): 0.15 ± 0.03 %ID/g
- tissue uptake at 1 h ([1]; Thyroid uptake): 0.18 ± 0.02 %ID/g
- tissue uptake at 1 h ([1]; Tumor uptake): 21.1 ± 3.62 %ID/g
- excreta dose per gram or mL at 1 h [1]: 444 ± 192 %ID/g
- Blood: Salivary ratio ([2]; mouse, in vivo): 4.27 ± 0.74
- Tumor: Blood ratio ([2]; mouse, in vivo): 32.2 ± 8.53
- Tumor: Kidney ratio ([2]; mouse, in vivo): 7.67 ± 2.10
- Tumor: Muscle ratio ([2]; mouse, in vivo): 249 ± 61.2
- Tumor: Salivary ratio ([2]; mouse, in vivo): 133 ± 14.0

SMILES: O=C(O)CCC[C@H](NC(=O)N[C@@H](CCCCNC(=O)[C@H](Cc1c2ccccc2cc2ccccc12)NC(=O)Cc1cccc(CNC(=O)CN2CCN(CC(=O)O)CCN(CC(=O)O)CCN(CC(=O)O)CC2)c1)C(=O)O)C(=O)O [68Ga-HTK04037, metal not drawn]
- tissue uptake at 1 h ([1]; Adrenal glands uptake): 0.19 ± 0.03 %ID/g
- tissue uptake at 1 h ([1]; Blood uptake): 0.51 ± 0.12 %ID/g
- tissue uptake at 1 h ([1]; Bone uptake): 0.07 ± 0.01 %ID/g
- tissue uptake at 1 h ([1]; Brain uptake): 0.02 %ID/g
- tissue uptake at 1 h ([1]; Fat uptake): 0.06 ± 0.01 %ID/g
- tissue uptake at 1 h ([1]; Heart uptake): 0.15 ± 0.03 %ID/g
- tissue uptake at 1 h ([1]; Intestine uptake): 0.28 ± 0.03 %ID/g
- tissue uptake at 1 h ([1]; Kidneys uptake): 4.47 ± 0.9 %ID/g
- tissue uptake at 1 h ([1]; Lacrimal uptake): 0.07 ± 0.04 %ID/g
- tissue uptake at 1 h ([1]; Liver uptake): 0.2 ± 0.03 %ID/g
- tissue uptake at 1 h ([1]; Lungs uptake): 0.46 ± 0.09 %ID/g
- tissue uptake at 1 h ([1]; Muscle uptake): 0.08 ± 0.03 %ID/g
- tissue uptake at 1 h ([1]; Pancreas uptake): 0.11 ± 0.01 %ID/g
- tissue uptake at 1 h ([1]; Salivary uptake): 0.14 ± 0.03 %ID/g
- tissue uptake at 1 h ([1]; Seminal uptake): 8.45 ± 10 %ID/g
- tissue uptake at 1 h ([1]; Spleen uptake): 0.24 ± 0.05 %ID/g
- tissue uptake at 1 h ([1]; Stomach uptake): 0.12 ± 0.05 %ID/g
- tissue uptake at 1 h ([1]; Tail uptake): 0.41 ± 0.16 %ID/g
- tissue uptake at 1 h ([1]; Testes uptake): 0.18 ± 0.04 %ID/g
- tissue uptake at 1 h ([1]; Thyroid uptake): 0.16 ± 0.03 %ID/g
- tissue uptake at 1 h ([1]; Tumor uptake): 13.1 ± 4.69 %ID/g
- excreta dose per gram or mL at 1 h [1]: 396 ± 114 %ID/g
- Blood: Salivary ratio ([2]; mouse, in vivo): 3.55 ± 0.46
- Tumor: Blood ratio ([2]; mouse, in vivo): 26.3 ± 10.5
- Tumor: Kidney ratio ([2]; mouse, in vivo): 3.02 ± 1.22
- Tumor: Muscle ratio ([2]; mouse, in vivo): 165 ± 52.9
- Tumor: Salivary ratio ([2]; mouse, in vivo): 92.2 ± 34.5

- tissue uptake at 1 h ([1]; kidney uptake): 76 %ID/g
SMILES: O=C(O)CN1CCN(CC(=O)O)CCN(CC(=O)NC[C@H]2CC[C@H](C(=O)N[C@@H](Cc3c4ccccc4cc4ccccc34)C(=O)NCCCC[C@H](NC(=O)N[C@@H](C[C@H](F)C(=O)O)C(=O)O)C(=O)O)CC2)CCN(CC(=O)O)CC1 [HTK04040]
- binding to PSMA (in words) ([2]; concluded from biodistribution): bind well to PSMA
- kidney and salivary gland uptake (in words) ([2]; mouse, in vivo): much less kidney and salivary gland uptake

SMILES: O=C(O)CSC[C@H](NC(=O)N[C@@H](CCCCNC(=O)[C@H](Cc1c2ccccc2cc2ccccc12)NC(=O)[C@H]1CC[C@H](CNC(=O)CN2CCN(CC(=O)O)CCN(CC(=O)O)CCN(CC(=O)O)CC2)CC1)C(=O)O)C(=O)O [68Ga-HTK03177, metal not drawn]
- tissue uptake at 1 h ([1]; Adrenal glands uptake): 0.46 ± 0.17 %ID/g
- tissue uptake at 1 h ([1]; Blood uptake): 0.7 ± 0.06 %ID/g
- tissue uptake at 1 h ([1]; Bone uptake): 0.1 ± 0.03 %ID/g
- tissue uptake at 1 h ([1]; Brain uptake): 0.02 %ID/g
- tissue uptake at 1 h ([1]; Fat uptake): 0.09 ± 0.04 %ID/g
- tissue uptake at 1 h ([1]; Heart uptake): 0.21 ± 0.01 %ID/g
- tissue uptake at 1 h ([1]; Intestine uptake): 0.21 ± 0.02 %ID/g
- tissue uptake at 1 h ([1]; Kidneys uptake): 7.76 ± 1 %ID/g
- tissue uptake at 1 h ([1]; Lacrimal uptake): 0.12 ± 0.06 %ID/g
- tissue uptake at 1 h ([1]; Liver uptake): 0.33 ± 0.2 %ID/g
- tissue uptake at 1 h ([1]; Lungs uptake): 0.61 ± 0.08 %ID/g
- tissue uptake at 1 h ([1]; Muscle uptake): 0.18 ± 0.18 %ID/g
- tissue uptake at 1 h ([1]; Pancreas uptake): 0.14 ± 0.01 %ID/g
- tissue uptake at 1 h ([1]; Salivary uptake): 0.22 ± 0.02 %ID/g
- tissue uptake at 1 h ([1]; Seminal uptake): 0.28 ± 0.38 %ID/g
- tissue uptake at 1 h ([1]; Spleen uptake): 0.42 ± 0.15 %ID/g
- tissue uptake at 1 h ([1]; Stomach uptake): 0.15 ± 0.09 %ID/g
- tissue uptake at 1 h ([1]; Tail uptake): 0.74 ± 0.12 %ID/g
- tissue uptake at 1 h ([1]; Testes uptake): 0.25 ± 0.07 %ID/g
- tissue uptake at 1 h ([1]; Thyroid uptake): 0.23 ± 0.01 %ID/g
- tissue uptake at 1 h ([1]; Tumor uptake): 24.7 ± 6.85 %ID/g
- excreta dose per gram or mL at 1 h [1]: 400 ± 262 %ID/g
- Blood: Salivary ratio ([2]; mouse, in vivo): 3.14 ± 0.19
- Tumor: Blood ratio ([2]; mouse, in vivo): 36.1 ± 12.5
- Tumor: Kidney ratio ([2]; mouse, in vivo): 3.25 ± 1.16
- Tumor: Muscle ratio ([2]; mouse, in vivo): 220 ± 135
- Tumor: Salivary ratio ([2]; mouse, in vivo): 112 ± 33.1
